Data: the supplement of paper PMC9170038

Test system: MS2 coat protein
Experiment: apparent KD of MS2 coat protein; designed switch direction (-1 OFF switch, 1 ON switch): 1; higher = weaker reporter binding
Method in brief: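 The reported apparent KD is a per-design median over clusters, from curve fits of normalised cluster fluorescence. Protein titrations used SNAP-549-labelled MS2 coat protein, doubled from 0.7 or 1.5 nM to 3 µM, in Tris-HCl pH 7.5 buffer with KCl, MgCl2, BSA, DTT, tRNA and Tween-20, with no input, 200 uM small-molecule ligand, or an oligonucleotide input. The RNA switches were transcribed on Illumina chips by stalled E. coli RNA polymerase.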

[1] = input ligand: microRNA oligo, concentration not stated
[2] = Eterna round: R95, input ligand: microRNA oligo, concentration not stated
[3] = Eterna round: R95, input ligand: FMN 200 uM
[4] = Eterna round: R95, input ligand: none

| Sequence | apparent KD of MS2 coat protein (input ligand: FMN 200 uM) | apparent KD of MS2 coat protein [1] | apparent KD of MS2 coat protein (input ligand: none) | apparent KD of MS2 coat protein [2] | apparent KD of MS2 coat protein [3] | apparent KD of MS2 coat protein [4] |
| --- | --- | --- | --- | --- | --- | --- |
| GCUACCAAUGAAGCCAACAUGAGGAUCACCCAUGUAUGUUGGCAGGAUAUCGAUUGCAAAGCGAUCGAGAAGGGCUAAGGUAGC [Mat - Same State NG 3 - JL Mod - D87] (Eterna round: R96, puzzle: Same State NG 3) | 0.107 µM | 0.12 µM | 0.177 µM |  |  |  |
| GCUAGAAUAAAAGCCAACAUGAGGAUCACCCAUGUAUGUUGGCAGGAUAUCGUAUGCAAAGCAUACGAGAAGGGCCAUACUAGC [Mat - Same State NG 3 - JL Mod - D24] (Eterna round: R96, puzzle: Same State NG 3) | 0.0498 µM | 0.0967 µM | 0.121 µM |  |  |  |
| GCUAGUAUUAUUGUCAACAUGAGGAUCACCCAUGUAUGUUGGCAGGAUAUCGUUUGCUUUGCAAACGAGAAGGGCUAAACUAGC [JL SSNG3 1.04] (Eterna round: R96, puzzle: Same State NG 3) | 0.0612 µM | 0.145 µM | 0.231 µM |  |  |  |
| GCUCGACGUAUGGCCUACAUGAGGAUCACCCAUGUGACUGGGCAGGAUAUCUAAAUGCAGAAUGUAGAGAAGGGCCCGUCGAGC [SameState NG3 #49] (Eterna round: R96, puzzle: Same State NG 3) | 0.163 µM | 0.0996 µM | 0.188 µM |  |  |  |
| GCUCGAUGAGAGUCCUACAUGAGGAUCACCCAUGUAUGUGGGCAGGAUAUCUACAUGCAGAAUGUAGAGAAGGGCCCGUCGAGC [SameState NG3 #57] (Eterna round: R96, puzzle: Same State NG 3) | 0.0352 µM | 0.106 µM | 0.187 µM |  |  |  |
| GCUCGUAUGAUGACCGACAUGAGGAUCACCCAUGUAUGUUGGUAGGAUAUCUAUAUUAAGGAUAUAGAGAAGGGCCGAACGAGC [SameState NG3 #15] (Eterna round: R96, puzzle: Same State NG 3) | 0.0265 µM | 0.0336 µM | 0.0401 µM |  |  |  |
| GCUGCAAGGGCAGGAUAUGGGUUCAGAGCGGAAGUGCGCUUUGAUACAUGAGGAUCACCCAUGUCCCAGAAGGGCCCAAACGGC [Beanti] (Eterna round: R96, puzzle: Same State NG 2) | 0.0173 µM | 0.0993 µM | 0.123 µM |  |  |  |
| GCUUCACAUGAGGAUCACCCAUGUCUUCGGAGUCGAGGAUAUGGUCACUGUAAACAGUGGCCAGAAGGCGAGGAGC [SS1 - Son of Teenbexe v7] (puzzle: Same State 1) |  |  |  | 0.0464 µM |  |  |
| GGAAUAUGAUGUUACAUGAGGAUCACCCAUGUAGUGACAACUAAGGAUAUCUGAAAAGAAGGAGAGGAGAAGGUAGGAUCAUAA [AK SSNG3-V2-14.1] (Eterna round: R96, puzzle: Same State NG 3) | 0.0257 µM | 0.0231 µM | 0.036 µM |  |  |  |
| GGAAUAUUUACAGGAUAUGAGUUGUAAAGUCGAUCAGAAGGGUAGGUGUCUUGCACGGUGUGUUACAUGAGGAUCACCCAUGUU [SameState NG1 #21] (Eterna round: R96, puzzle: Same State NG 1) | 0.156 µM | 0.116 µM | 0.128 µM |  |  |  |
| GGACGUCAUCUCACUGAUUAAACAUGAGGAUCACCCAUGUCACAGGAUAUGAGUCCGAUUAGGACUCAGAAGGGUGUGACGUCC [Fiskers NG3ss - 45] (Eterna round: R96, puzzle: Same State NG 3) | 0.0207 µM | 0.0146 µM | 0.0229 µM |  |  |  |
| GGAGAACAUGAGGAUCACCCAUGUGAGCGGUAGCUAGGAUAUGCGGGAAGGAAGAGAGAAGCAGAAGGAGUCGGUA [JR_SS1_Sub033] (puzzle: Same State 1) |  |  |  | 0.0342 µM |  |  |
| GGAGAACAUGAGGAUCACCCAUGUGGAUGAGCGCUAGGAUAUGCGGGAGGGUGAAGAGAAGCAGAAGGAGUAGAUA [JR_SS1_Sub034] (puzzle: Same State 1) |  |  |  | 0.0996 µM | 0.0639 µM | 0.18 µM |
| GGAGCCAAGGCAGGAUAUUCAUAUUAAUAACACAUGAGGAUCACCCAUGUGGCCAGAAGGCCAAGGGAGAAGGGCCAUGGCUCG [Xeonanis - 13 mod11] (Eterna round: R96, puzzle: Same State NG 2) | 0.0221 µM | 0.0654 µM | 0.159 µM |  |  |  |
| GGAGCCGAUACUGAGGAUAUUCAUAUUAAAACAUGAGGAUCACCCAUGUAGGCCAGAAGGCCUUGGGAGAAGGCAGAUCGGCUCC [Biseusra - 4] (Eterna round: R96, puzzle: Same State 2) | 0.021 µM | 0.207 µM | 0.358 µM |  |  |  |
| GGAGCCGAUACUGAGGAUAUUCAUAUUAAAACAUGAGGAUCACCCAUGUAGGCCAGAAGGCCUUGGGAGAAGGCAGAUCGGCUCC [Biseusra - 4] (puzzle: Same State 2) |  |  |  | 0.301 µM | 0.0195 µM | 0.45 µM |
| GGAGCCGGCACUGAGGAUAUUCGUAUUAAAACAUGAGGAUCACCCAUGUAGGCCAGAAGGCCUUGGGAGAAGGCAGGUCGGCCCG [Bibimoar - 5] (puzzle: Same State 2) |  |  |  | 0.0339 µM | 0.0125 µM | 0.0464 µM |
| GGAGCCGGCCUAGGAUAUUUCAUAAAACAACAUGAGGAUCACCCAUGUAGGCCAGAAGGCCUUGGGAAGAAGGAGGUCGGCUCC [Loop Effect - C28] (Eterna round: R96, puzzle: Same State NG 2) | 0.0102 µM | 0.0197 µM | 0.0284 µM |  |  |  |
| GGAGCCGGCCUAGGAUAUUUCAUACAAAAACAUGAGGAUCACCCAUGUAGGCCAGAAGGCCUUGGGAAGAAGGAGGUCGGCUCC [Loop Effect - C25] (Eterna round: R96, puzzle: Same State NG 2) | 0.0145 µM | 0.0169 µM | 0.0342 µM |  |  |  |
| GGAGCCGGCCUAGGAUAUUUCAUAUAAAUACAUGAGGAUCACCCAUGUAGGCCAGAAGGCCUUGGGAAGAAGGAGGUCGGCUCC [Loop Effect - U25,U29] (Eterna round: R96, puzzle: Same State NG 2) | 0.013 µM | 0.0204 µM | 0.0315 µM |  |  |  |
| GGAGCCGGCCUAGGAUAUUUCAUUAAUAAACAUGAGGAUCACCCAUGUAGGCCAGAAGGCCUUGGGAAGAAGGAGGUCGGCUCC [Loop Effect - U24,U27] (Eterna round: R96, puzzle: Same State NG 2) | 0.0212 µM | 0.0245 µM | 0.0377 µM |  |  |  |
| GGAGCCGGUACUGAGGAUAUUCAUUUUAAAACAUGAGGAUCACCCAUGUAGGCCAGAAGGCCUUGGGAGAAGGCAGACCAGCUCG [Atgexeedri - 6] (puzzle: Same State 2) |  |  |  | 0.217 µM | 0.0209 µM | 0.369 µM |
| GGAGCCGGUACUGAGGAUAUUCGUAUUAAAACAUGAGGAUCACCCAUGUAGGCCAGAAGGCCUUGGGAGAAGGCAGACCAGCUCG [Atgexeedri - 5] (puzzle: Same State 2) |  |  |  | 0.026 µM | 0.0143 µM | 0.0405 µM |
